The record followed here is patent US20240059799A1 (Pfizer, published 2024).

Holding throughout (assay): SPR, Biacore 8K+, 37 C; antibody captured by anti-human Fc, cytokine injected
(In general: In SPR one partner is held on a chip, and binding of the other changes the refractive index at the surface.)

One experiment has as its target T1, human IL-12 (human, UniProt P29460 23-328; P29459 23-219).
T1 construct: also called recombinant human IL-12 (p40/p35)
T1 sequence 1: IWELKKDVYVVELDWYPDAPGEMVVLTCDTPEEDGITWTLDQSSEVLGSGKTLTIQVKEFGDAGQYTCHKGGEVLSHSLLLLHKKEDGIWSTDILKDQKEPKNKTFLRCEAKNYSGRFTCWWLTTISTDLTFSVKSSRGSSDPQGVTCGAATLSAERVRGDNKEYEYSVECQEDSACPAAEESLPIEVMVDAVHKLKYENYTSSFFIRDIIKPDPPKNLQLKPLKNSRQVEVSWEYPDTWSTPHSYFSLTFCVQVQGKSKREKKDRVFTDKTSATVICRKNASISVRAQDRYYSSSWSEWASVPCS
T1 sequence 2: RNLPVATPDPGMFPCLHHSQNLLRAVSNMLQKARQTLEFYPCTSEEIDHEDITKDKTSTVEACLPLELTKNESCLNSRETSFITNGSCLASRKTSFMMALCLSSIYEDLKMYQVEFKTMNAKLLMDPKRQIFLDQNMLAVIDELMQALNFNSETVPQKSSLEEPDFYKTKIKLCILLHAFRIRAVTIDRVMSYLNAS
As to the method: (§1) In order to determine binding to TL1A, kinetic assays were conducted at 37° C. using a collection rate of 10 Hz on a Biacore™ T200 instrument (GE Healthcare). […] For the analysis of the p40 binding arm, kinetic assays were conducted at 37° C. using a collection rate of 10 Hz on a Biacore™ 8 K+ instrument (GE Healthcare).

A further experiment deals with T2, rat IL-23 (rat, UniProt P43432 23-335; Q91Z84 22-196, limits assumed).
T2 chain 1: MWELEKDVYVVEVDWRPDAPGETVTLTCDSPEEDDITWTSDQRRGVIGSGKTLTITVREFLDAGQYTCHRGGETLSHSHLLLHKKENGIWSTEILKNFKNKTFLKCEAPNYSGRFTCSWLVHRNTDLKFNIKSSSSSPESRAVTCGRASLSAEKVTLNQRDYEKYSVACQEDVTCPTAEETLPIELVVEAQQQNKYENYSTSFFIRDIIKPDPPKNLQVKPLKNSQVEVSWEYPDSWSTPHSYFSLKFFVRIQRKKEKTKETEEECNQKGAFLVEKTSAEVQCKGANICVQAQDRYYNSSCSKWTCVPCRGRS
T2 chain 2: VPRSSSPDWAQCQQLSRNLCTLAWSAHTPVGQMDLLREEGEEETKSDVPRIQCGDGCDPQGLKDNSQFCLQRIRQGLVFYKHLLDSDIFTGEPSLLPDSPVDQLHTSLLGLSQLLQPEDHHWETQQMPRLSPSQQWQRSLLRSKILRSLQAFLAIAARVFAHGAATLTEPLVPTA
As to the method: as §1

For a further experiment, the target named is T3, rat IL-12 (rat, UniProt P43432 23-335; Q9R103 23-215, limits assumed).
T3 chain 1: T2 chain 1
T3 chain 2: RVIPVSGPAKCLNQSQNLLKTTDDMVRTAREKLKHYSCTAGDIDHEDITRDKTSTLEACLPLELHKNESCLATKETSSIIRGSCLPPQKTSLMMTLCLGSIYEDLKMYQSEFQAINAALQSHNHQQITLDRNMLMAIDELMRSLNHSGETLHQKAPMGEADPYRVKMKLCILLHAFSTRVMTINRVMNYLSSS
As to the method:
as §1

In the next experiment the target is T4, mouse IL-23 (mouse, UniProt P43432 23-335; Q9EQ14 22-196).
T4 sequence 1: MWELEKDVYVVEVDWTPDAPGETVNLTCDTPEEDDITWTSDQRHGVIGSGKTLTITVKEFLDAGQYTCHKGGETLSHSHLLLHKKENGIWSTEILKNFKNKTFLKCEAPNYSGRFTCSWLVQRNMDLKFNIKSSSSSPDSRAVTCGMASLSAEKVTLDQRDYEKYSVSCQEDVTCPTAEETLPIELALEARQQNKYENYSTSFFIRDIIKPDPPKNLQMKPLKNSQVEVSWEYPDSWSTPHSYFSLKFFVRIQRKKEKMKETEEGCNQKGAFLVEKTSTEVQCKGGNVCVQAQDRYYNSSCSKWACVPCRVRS
T4 sequence 2: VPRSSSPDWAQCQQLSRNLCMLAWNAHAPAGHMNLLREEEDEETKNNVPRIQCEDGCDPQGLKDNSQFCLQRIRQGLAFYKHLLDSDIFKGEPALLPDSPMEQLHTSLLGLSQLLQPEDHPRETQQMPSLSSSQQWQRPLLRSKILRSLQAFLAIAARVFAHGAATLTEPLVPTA
The procedure:
as §1

Another experiment addresses T5, human IL-23 (human, UniProt P29460 23-328; Q9NPF7 20-189).
T5 construct: also called recombinant human IL-23 (p40/p19)
T5 sequence 1: T1 sequence 1
T5 sequence 2: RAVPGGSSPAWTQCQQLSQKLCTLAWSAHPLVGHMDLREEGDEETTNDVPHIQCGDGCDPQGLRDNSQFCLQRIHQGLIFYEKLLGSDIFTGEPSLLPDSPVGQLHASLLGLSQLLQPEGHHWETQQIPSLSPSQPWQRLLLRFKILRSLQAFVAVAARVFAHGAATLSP
The procedure:
as §1

A further experiment deals with T6, rabbit IL-12 (rabbit).
T6 chain 1: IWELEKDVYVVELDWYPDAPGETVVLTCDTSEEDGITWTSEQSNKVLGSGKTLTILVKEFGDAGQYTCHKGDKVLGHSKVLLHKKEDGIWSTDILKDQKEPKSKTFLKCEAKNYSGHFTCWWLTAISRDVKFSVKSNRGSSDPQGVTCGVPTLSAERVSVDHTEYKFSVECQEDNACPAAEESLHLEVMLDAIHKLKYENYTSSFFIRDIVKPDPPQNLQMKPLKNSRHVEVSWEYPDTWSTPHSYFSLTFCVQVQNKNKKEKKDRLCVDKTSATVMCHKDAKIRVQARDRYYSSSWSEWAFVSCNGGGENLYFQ
T6 chain 2: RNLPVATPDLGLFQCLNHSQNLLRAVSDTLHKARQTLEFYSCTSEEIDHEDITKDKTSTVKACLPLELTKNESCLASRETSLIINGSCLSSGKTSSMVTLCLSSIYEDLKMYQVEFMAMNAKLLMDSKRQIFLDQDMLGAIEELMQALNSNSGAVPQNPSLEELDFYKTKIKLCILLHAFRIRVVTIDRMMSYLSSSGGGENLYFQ
As to the method: as §1

B1: p40TL1A-0033 bispecific antibody (bispecific antibody, human IgG1, kappa)
heavy: EVQLVQSGAEVKKPGESLKISCKGSGYSFTTYWLGWVRQMPGKGLDWIGIMSPVDSDIRYSPSFQGQVTMSVDKSITTAYLQWNSLKASDTAMYYCARRRPGQGYFDFWGQGTLVTVSSASTKGPSVFPLAPSSKSTSGGTAALGCLVKDYFPEPVTVSWNSGALTSGVHTFPAVLQSSGLYSLSSVVTVPSSSLGTQTYICNVNHKPSNTKVDKKVEPKSCDKTHTCPPCPAPEAAGAPSVFLFPPKPKDTLMISRTPEVTCVVVDVSHEDPEVKFNWYVDGVEVHNAKTKPREEQYNSTYRVVSVLTVLHQDWLNGKEYKCKVSNKALPAPIEKTISKAKGQPREPQVCTLPPSREEMTKNQVSLWCLVKGFYPSDIAVEWESNGQPENNYKTTPPVLDSDGSFFLYSKLTVDKSRWQQGNVFSCSVLHEALHSHYTQKSLSLSPGK
light: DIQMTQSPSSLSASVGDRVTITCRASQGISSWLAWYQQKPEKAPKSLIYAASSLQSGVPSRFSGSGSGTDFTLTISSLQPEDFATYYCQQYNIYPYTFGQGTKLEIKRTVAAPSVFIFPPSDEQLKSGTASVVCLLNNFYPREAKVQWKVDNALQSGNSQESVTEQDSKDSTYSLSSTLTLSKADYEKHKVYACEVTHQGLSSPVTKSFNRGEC
chain 1: not shown
chain 2: QVQLVQSGAEVKKPGASVKVSCKASGYDYTYYGISWVRQAPGQGLEWMGWISTYNTGTHYAPSLQGRVTMTTDTSTSTAYMELRSLRSDDTAVYYCARESYYGSGAFRGGMDVWGQGTTVTVSSASTKGPSVFPLAPSSKSTSGGTAALGCLVKDYFPEPVTVSWNSGALTSGVHTFPAVLQSSGLYSLSSVVTVPSSSLGTQTYICNVNHKPSNTKVDKKVEPKSC
notes: Single cell KiH, modified Fd format; IgG1 effector-function-minimized Fc with LS mutations
For B1, the Kd (commonly the equilibrium constant for the complex coming apart) with human IL-12 turned out to be 0.123 nM; with human IL-23, 0.104 nM. Besides, the values for the koff with human IL-12 and in the experiment with human IL-23 were 0.000258 s⁻¹ and 0.000294 s⁻¹, respectively. In addition, the kon – broadly, the second-order rate constant of association – in the experiment with human IL-12 came out at 2.1e+06 M⁻¹ s⁻¹; with human IL-23, 2.82e+06 M⁻¹ s⁻¹. Also, the binding result in the experiment with rat IL-23, with rat IL-12, with mouse IL-23 and in the experiment with rabbit IL-12 was “no binding (tested: 200 nM)” throughout.
